Values of other authors in paper PMC4926285.
pKd: −log10 of the molar value.

Biological target: insulin receptor (site 1) site 1 (L1 and carboxy-terminal α-chain) (Homo sapiens) (UniProt P06213)
Chain of UniProt P06213 (P06213 28-182): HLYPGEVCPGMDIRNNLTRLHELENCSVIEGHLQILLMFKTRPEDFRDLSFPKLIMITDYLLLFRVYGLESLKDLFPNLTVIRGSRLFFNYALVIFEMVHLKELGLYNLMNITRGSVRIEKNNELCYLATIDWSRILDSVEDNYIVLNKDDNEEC

Chain of insulin (P01308 90-110): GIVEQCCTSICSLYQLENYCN

## insulin (from UniProt P01308)
  pKd: 8.19
